In assay [1] the target is T1, IL2Rβγ-Fc (UniProt P14784 27-240; P31785 23-262, limits assumed).
T1 construct: From Beijing Zhidao Biotechnology, loaded on ProA sensors; also called IL2Rβγ receptors; complex of β and γ receptor subunits; not shown: Fc
T1 sequence (looked up) 1: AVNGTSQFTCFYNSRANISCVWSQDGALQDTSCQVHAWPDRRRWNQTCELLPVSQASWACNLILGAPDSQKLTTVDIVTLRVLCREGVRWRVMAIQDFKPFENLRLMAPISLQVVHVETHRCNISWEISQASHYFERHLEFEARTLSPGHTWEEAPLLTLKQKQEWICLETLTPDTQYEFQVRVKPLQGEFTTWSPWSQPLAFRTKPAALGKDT
T1 sequence (looked up) 2: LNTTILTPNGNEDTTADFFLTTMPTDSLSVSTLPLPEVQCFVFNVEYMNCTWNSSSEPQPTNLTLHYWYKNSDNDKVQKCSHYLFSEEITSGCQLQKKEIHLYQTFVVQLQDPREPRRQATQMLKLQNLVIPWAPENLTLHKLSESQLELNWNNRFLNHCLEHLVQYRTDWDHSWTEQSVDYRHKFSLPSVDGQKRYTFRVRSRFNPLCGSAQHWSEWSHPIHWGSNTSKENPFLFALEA
The experiment in a line: BLI (Fortebio Octet RED96), IL2Rβγ-Fc loaded on ProA sensor, analyte 2.5-40 nM as labelled; R2 0.998. The method, then:
(§1) The buffer formulation was as follows: 10 mM HEPES, 150 mM sodium chloride, 3 mM EDTA, 0.1% BSA and 0.05% Tween 20. The ProA sensor was purchased from Pall Fortebio (Cat. No. #18-5010). The HISIK sensor was purchased from Pall Fortebio (Cat. No. #18-5120). The BLI equipment was Octet RED96 from Pall Fortebio. Data acquisition and analysis were carried out using software Data acquisition 11.0 and Data Analysis 11.0, respectively.
(§2) IL2Rβγ-Fc was diluted with the buffer solution to a concentration of 10 μg/mL, and then added to column 2 of the 96-well assay plate. The program was set to Loading, 600 s.
(§3) 8 ProA sensors were respectively placed in A-H of column 1 of the sensor holder. In the software Data acquisition 11.0, the detection conditions were set as follows. 1 Pre-wetting: Baseline, 60 s, Position: Column 1. 2 Cycle detection: column 2: loading, 600 s; column 4: Baseline 1, 60 s; columns 5-9: Association, 200 s; column 10: Dissociation, 600 s; column 11: neutralization; and column 12: regeneration.

Assay [2] concerns the target T1, IL2Rβγ-Fc. The experiment in a line: BLI (Fortebio Octet RED96), IL2Rβγ-Fc loaded on ProA sensor, analyte 2.5-40 nM as labelled; R2 0.9984. Here is the method:
as §1, §2, §3
Background: In BLI a coated tip is dipped into the sample, and binding shifts an interference pattern.

For assay [3], the target named is T2, IL2Rα-his (UniProt P01589 22-217, limits assumed).
T2 construct: From Beijing Zhidao Biotechnology, loaded on HIS1K sensors; also called IL2Rα receptor; α receptor subunit; not shown: his tag
T2 sequence (looked up): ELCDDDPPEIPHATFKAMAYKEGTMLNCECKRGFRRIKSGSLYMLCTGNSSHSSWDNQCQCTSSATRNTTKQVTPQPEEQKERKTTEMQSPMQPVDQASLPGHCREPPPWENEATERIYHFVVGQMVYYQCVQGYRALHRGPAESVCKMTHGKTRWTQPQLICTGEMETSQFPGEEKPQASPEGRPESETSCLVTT
The experiment in a line: BLI (Fortebio Octet RED96), IL2Rα-his loaded on HIS1K sensor, analyte at 100 nM. The method, then: as §1
IL2Rα-his was diluted with the buffer solution to a concentration of 10 μg/mL, and then added to column 3 of the 96-well assay plate. The program was set to Loading, 600 s.

The target of assay [4] is T1, IL2Rβγ-Fc. Nature of the assay: BLI (Fortebio Octet RED96), IL2Rβγ-Fc loaded on ProA sensor, analyte 1.25-40 nM; R2 0.9953. The method, then:
as §2
(§4) They were added to columns 5-9 of the 96-well assay plate, respectively. The program was set to Association, 200 s. The buffers were added to columns 1, 4, 10 and 11 of the 96-well assay plate, and the glycine with pH 1.7 was added to column 12. The loading volume of the above samples or solutions was 200 μL.
as §3

For assay [5], the target named is T1, IL2Rβγ-Fc. The experiment in a line: BLI (Fortebio Octet RED96), IL2Rβγ-Fc loaded on ProA sensor, analyte 1.25-40 nM; R2 0.9972. The method, then:
as §2, §4, §3

Consider four molecules from patent US20220363731A1 (LETO LABORATORIES, published 2022).

What is called Kd is the constant that tells how readily two partners part at equilibrium. Read a high Kd as a looser complex.

Substitutions are numbered along the chain they refer to. In names and notes the source's numbering stands.

B1: IL-2 Mutant 1, IL-2 (M39C, V69C, C125A) (ligand)
chain: APTSSSTKKTQLQLEHLLLDLQMILNGINNYKNPKLTRCLTFKFYMPKKATELKHLQCLEEELKPLEECLNLAQSKNFHLRPRDLISNINVIVLELKGSETTFMCEYADETATIVEFLNRWITFAQSIISTLT
notes: Designed to form an intramolecular disulfide bond between Cys39 and Cys69; not shown: HPC4 tag at the C-terminus
The molecule B1 showed a Kd in assay [1] of 0.56 nM.

B2: IL-2 Mutant 3, IL-2 (F44C, P65C, C125A) (ligand)
chain: B1 chain with C39M, F44C, P65C, C69V
notes: Designed to form an intramolecular disulfide bond between Cys44 and Cys65; not shown: HPC4 tag at the C-terminus
Take B2: in assay [2], binding was put at a Kd of 0.66 nM.

B3: IL-2 Mutant 2, IL-2 (F44C, E62C, C125A) (ligand)
chain: B1 chain with C39M, F44C, E62C, C69V
notes: Designed to form an intramolecular disulfide bond between Cys44 and Cys62; not shown: HPC4 tag at the C-terminus
For the molecule B3, in assay [3], the binding result is “no binding (tested: 100 nM)”. For the same molecule, the affinity in assay [4], expressed as Kd, was 0.675 nM.

B4: IL-2 Mutant 4, IL-2 (F42C, V69C, C125A) (ligand)
chain: B1 chain with C39M, F42C
notes: Designed to form an intramolecular disulfide bond between Cys42 and Cys69; not shown: HPC4 tag at the C-terminus
For B4, the binding result in assay [3] was “no binding (tested: 100 nM)”. For the same molecule, in assay [5], the Kd stood at 0.268 nM.
